The text below walks through data of paper PMC4824898 (2016).

This test addresses rabbit skeletal muscle actin (Oryctolagus cuniculus (Rabbit), UniProt P68135). Briefly: actin co-sedimentation; polymerised (filamentous) actin.

B1: actin-binding domain (ABD) of S. pombe α-actinin (protein)
chain: MQANQWQSVQNRTFTKWFNTKLSSRDLPSVFDLRKDLSDGILLIQLLEIIGDENLGRYNRNPRMRVHRLENVNKALEYIKSKGMPLTNIGPADIVDGNLKLILGLIWTLILRFTIADINEEGLTAKEGLLLWCQRKTANYHPEVDVQDFTRSWTNGLAFCALIHQHRPDLLDYNKLDKKNHRANMQLAFDIAQKSIGIPRLIEVEDVCDVDRPDERSIMTYVAEYFHAFSTLDK
For B1, the binding result is on record as “no binding”.
